Consider one molecule from patent US20160009795A1 (BIOCARE MEDICAL, published 2016).

Test [1] concerns the target T1, p40 peptide amino acids 1-17 (MLYLENNAQTQFSEPQY) (human).
T1 peptide: MLYLENNAQTQFSEPQY
Description: epitope mapping, peptide ELISA and dot blot. From the text: (§1) In order to determine the peptide sequence of p40 that is recognized by anti-p40 antibodies such as BC28, epitope mapping may be conducted perhaps using two assays: direct ELISA and even dot blot. In an ELISA assay, the sensitivity and specificity of the anti-p40 [BC28] antibody may be determined by measuring the antibody titer at about 1:500 and about 1:1000. Overlapping peptides at a length of about 15 amino acids each, covering the human p40 protein sequence from perhaps 1 to 17 amino acids, may be used to determine a sequence of BC28 binding.
In general terms: In an ELISA, binding on a coated surface is turned into a signal by an enzyme label.

Test [2] addresses T2, p40 peptide amino acids 1-9 (MLYLENNAQ) (human).
T2 peptide: MLYLENNAQ
Description: epitope mapping, peptide ELISA and dot blot.
Source text: as §1

B1: mouse monoclonal anti-p40 antibody BC28 (antibody, mouse IgG1, V domains shown)
VH: GVKLVESGGGFVKPGGSLTLSCAASGFTFSIYAMSWVRQTPEKRLEWVTSISSGDDIFYPDNLKGQFTISRDNARNILYLQMSSLRSEDTAIYYCVRHGYNATDYWGQGTSVTVSS
VL: DVLMTQTPLSLPVSLGDQASISCRSSQSIVYSNGNTYLEWYLQKPGQSPKLLIYKVSNRFSGVPDRFSGSGSGTDFTLKISRVEAEDLGVYYCFQGSHVPFTFGSGTKLEIK
notes: also called p40 [BC28]; p40 (M)
As for B1, the binding result in test [1] and in test [2] was “binds” in each case.
